B1: IRBP-1-68 polypeptide (SEQ ID NO:1) (peptide)
chain: SRCQGKSSWPQLVGSTGAAAKAVIERENPRVRAVIIKVGSGATKDFRCDRVRVWVTERGIVARPPTIG
B2: IRBP-AT (SEQ ID NO:182) (peptide)
peptide: IVVRNPTAG
notes: Homologue of IRBP-60-68 with several residues replaced; synthetic
B3: IRBP-CP (SEQ ID NO:186) (peptide)
peptide: KVIRVPRIG
notes: as for B2
B4: IRBP-OS (SEQ ID NO:183) (peptide)
peptide: TVAKTPTIG
notes: as for B2
B5: IRBP-LU (SEQ ID NO:188) (peptide)
peptide: VVTSVPHIT
notes: as for B2
B6: IRBP-MT (SEQ ID NO:179) (peptide)
peptide: IVYQVPTIG
notes: as for B2
B7: IRBP-CM (SEQ ID NO:184) (peptide)
peptide: LVVSPPRIG
notes: as for B2
B8: IRBP-VV-1 (SEQ ID NO:185) (peptide)
peptide: IVSMVPKIG
notes: as for B2
B9: IRBP-VV-2 (SEQ ID NO:180) (peptide)
peptide: IVISVPTIG
notes: as for B2
B10: IRBP-ZE (SEQ ID NO:187) (peptide)
peptide: IVIRTPIIT
notes: as for B2
B11: IRBP-SN (SEQ ID NO:181) (peptide)
peptide: IVTRVPVIG
notes: as for B2

These binders were tested against T1, insulin receptor on human lymphocyte cells (IM-9) (human, UniProt P06213 28-1382) (assay: whole cell receptor binding assay on IM-9 cells with 125I-insulin; EC50 of promoting 125I-insulin binding).
T1 construct: whole, on cells; Endogenous receptor of IM-9 cells; also called IR; insulin receptors

Question: With RVRVWVTERGIVARPPTIG [IRBP-50-68 (SEQ ID NO:6)] as the binder, how does the EC50 read?
Answer: The EC50 was 0.73 nM.

Question: For IVARPPTIG (synthetic) [IRBP-60-68 (SEQ ID NO:7)], which EC50 is on record?
Answer: The EC50 was 0.77 nM.

Question: For DFRCDRVRVWVTERGIVARPPTIG (synthetic) [IRBP-45-68 (SEQ ID NO:5)], which EC50 is on record?
Answer: Its EC50 is greater than 25 nM.

Question: Which EC50 does the source give for SRCQGKSSWPGLVGSTGAA (synthetic) [IRBP-1-19 (SEQ ID NO:2)] here?
Answer: Its EC50 is 15.3 nM.

Question: VIIKVGSGATKDFRCDRVR (synthetic) [IRBP-34-52 (SEQ ID NO:4)] was tested. Which EC50 did it give?
Answer: Its EC50 is greater than 25 nM.

These binders were tested against T1, insulin receptor on human lymphocyte … (assay: whole cell receptor binding assay on IM-9 cells with 125I-insulin; EC50 defined as the concentration promoting 50% of the 125I-insulin to bind).
Procedure: (§1) After incubation, the cells were chilled, centrifuged at 2000 rpm for 10 min at 4° C., and the pellets were washed twice with an ice-cold wash buffer (10 mmol/L Tris and 150 mmol/L NaCl, pH 7.6). The pellet was counted by a gamma counter. The assays were performed at least three times for each polypeptide. […] The lower value of EC₅₀ represents a stronger effect on promoting the binding.

Question: Which EC50 does the source give for B1 here?
Answer: The EC50 was 4.15 nM.

Target: T1, insulin receptor on human lymphocyte …
Experiment: whole cell receptor binding assay on IM-9 cells with 125I-insulin; EC50 of promoting 125I-insulin binding
Remark: another data set of the same source
Procedure: as §1

Question: Which EC50 does the source give for B2 here?
Answer: The EC50 was 9.98 nM.

Question: B3 was tested. Which EC50 did it give?
Answer: The EC50 was 0.84 nM.

Question: Which EC50 does the source give for IVARPPAIG [IRBP-MC (SEQ ID NO:21)] here?
Answer: Its EC50 is 0.86 nM.

Question: Which EC50 does the source give for B4 here?
Answer: Its EC50 is 9.93 nM.

Question: Which EC50 does the source give for B5 here?
Answer: Its EC50 is 9.7 nM.

Question: Which EC50 does the source give for B6 here?
Answer: Its EC50 is 0.77 nM.

Question: For B7, which EC50 is on record?
Answer: The EC50 was 0.92 nM.

Question: How did the EC50 turn out when B8 was run?
Answer: Its EC50 is 0.96 nM.

Question: Which EC50 does the source give for B9 here?
Answer: Its EC50 is 4.98 nM.

Question: With B10 as the binder, how does the EC50 read?
Answer: The EC50 was 4.94 nM.

Question: For B11, which EC50 is on record?
Answer: The EC50 was 9.79 nM.

Source: US20130310313A1 (CHINA MEDICAL UNIVERSITY, published 2013)
